This note sets out measurements from paper PMC5059719, “Tetrameric structure of the restriction DNA glycosylase R.PabI in complex with nonspecific double-stranded DNA” (Scientific Reports, 2016).

Positions count from the first letter of the chain named. Names and notes keep the numbering of the source.

Series [1] deals with R.PabI Y68F R70D mutant, residues 8-226 (Pyrococcus abyssi) (UniProt Q9V2B6).
For series [2], the target named is R.PabI Y68F R70D D71R mutant, residues 8-226 (Pyrococcus abyssi) (UniProt Q9V2B6).
Series [3] deals with the molecule itself. In words: crystal structure; R.PabI R32A E63A dimer co-crystallised with 20 bp blunt-ended nonspecific dsDNA (dsDNA:dimer 1:2) in 10 mM MES pH 6.0, 100 mM NaCl; sitting drop, 20 °C; one dimer in the asymmetric unit, tetramer = two dimers related by the crystallographic two-fold axis, sandwiching the dsDNA.
Series [4] concerns the molecule itself. The series is described as follows: cell-based or functional assay.

B1: R.PabI Y68F R70D mutant, residues 8-226 (enzyme)
chain: EASVSFENGKIVVRLPITRPTSKIRVKKIENGVGIPVSTRKKSFPSDENLRDYYIEWQISFADDGKYDYELSRMVRLAHEHGILTYNDIYELLKFADDVKSYLEDKGIRRESTNEELYGFNIYEDVYPVAKKELPSGEFIGIVLKHKQRAVGYQSMVYVCIPLTNVEPSLAGRVARRNEVVKYEVPVDLMKELLKAFIIASETHKNDIVKFLRSIIGTS
B1: in series [1], the DNA glycosylase activity relative to the Y68F control, 24 bp dsDNA substrate came out at 127%; the DNA glycosylase activity relative to the Y68F control, 500 bp dsDNA substrate amounted to 76%; the DNA glycosylase activity relative to the Y68F control, 3000 bp dsDNA substrate came to 19%.

B2: R.PabI Y68F R70D D71R mutant, residues 8-226 (enzyme)
chain: B1 chain with D64R
For B2, in series [2], the DNA glycosylase activity relative to the Y68F control, 24 bp dsDNA substrate came to 105%; the DNA glycosylase activity relative to the Y68F control, 500 bp dsDNA substrate stood at 71%; the DNA glycosylase activity relative to the Y68F control, 3000 bp dsDNA substrate was determined as 40%.

B3: R.PabI R32A E63A double mutant, residues 8-226 (enzyme, Pyrococcus abyssi, UniProt Q9V2B6 8-226, looked up)
chain: B1 chain with R25A, E56A, F61Y, D63R
notes: R.PabI, type II restriction enzyme (restriction DNA glycosylase) of Pyrococcus abyssi, residues 8-226, with R32A and E63A; Cloned into the NdeI-BamHI site of pET26b; also called protomers A and B; source: E. coli Rosetta(DE3)pLysS, purified (heat treatment, heparin column, MonoS)
As to B3, the “stoichiometry N” value in series [3] amounted to 2.

B4: R.PabI Y68F D71R mutant, residues 8-226 (enzyme, Pyrococcus abyssi, UniProt Q9V2B6 8-226, looked up)
chain: B1 chain with D63R, D64R
In the case of B4, in series [4], the “DNA glycosylase activity relative to the Y68F control, 24 bp dsDNA substrate” value came out at 74%; the “DNA glycosylase activity relative to the Y68F control, 500 bp dsDNA substrate” value turned out to be 34%; the “DNA glycosylase activity relative to the Y68F control, 3000 bp dsDNA substrate” value is 19%.

A word on the stoichiometry N: it is the number of molecules, sites or subunits per partner or assembly.
